The values below come from patent US20130064834A1 (published 2013).

Broadly, the Kd is the constant that tells how readily two partners part at equilibrium.

Assay [1] concerns the target T1, his-tagged Syrian golden hamster (Mesocricetus auratus) PCSK9 (Syrian golden hamster (Mesocricetus …)).
T1 construct: also called maPCSK9-h; maPCSK9
T1 chain: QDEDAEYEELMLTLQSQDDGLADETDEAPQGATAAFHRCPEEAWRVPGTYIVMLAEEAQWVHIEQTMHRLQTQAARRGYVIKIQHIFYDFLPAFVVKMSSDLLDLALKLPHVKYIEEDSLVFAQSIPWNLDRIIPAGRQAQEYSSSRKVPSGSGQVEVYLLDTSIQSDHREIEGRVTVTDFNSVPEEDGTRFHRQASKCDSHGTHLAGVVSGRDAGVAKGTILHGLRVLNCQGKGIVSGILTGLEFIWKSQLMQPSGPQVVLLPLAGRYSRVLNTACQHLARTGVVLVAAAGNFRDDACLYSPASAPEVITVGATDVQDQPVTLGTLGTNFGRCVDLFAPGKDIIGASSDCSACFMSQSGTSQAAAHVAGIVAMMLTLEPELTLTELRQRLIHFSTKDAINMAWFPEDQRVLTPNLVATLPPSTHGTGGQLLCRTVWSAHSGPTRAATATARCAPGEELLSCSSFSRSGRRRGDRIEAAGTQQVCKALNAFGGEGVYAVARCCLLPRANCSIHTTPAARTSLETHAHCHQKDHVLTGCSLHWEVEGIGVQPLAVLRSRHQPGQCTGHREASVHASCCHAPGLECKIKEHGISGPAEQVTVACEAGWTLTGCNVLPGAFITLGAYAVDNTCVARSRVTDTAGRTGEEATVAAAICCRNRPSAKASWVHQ
In words: SPR, mAb captured on anti-hFc, 37C. Background: Surface plasmon resonance follows binding to a sensor surface in real time, without labels.

Assay [2] deals with T2, hPCSK9(D374Y)-mmh (human, UniProt Q8NBP7 31-692).
T2 construct: also called hPCSK(D374Y)-mmh
In words: SPR, mAb captured on anti-hFc, 37C.

Assay [3] concerns the target T3, tagged rhesus monkey (Macaca mulata) PCSK9 (rhesus monkey (Macaca mulata), UniProt A8T666 31-692).
T3 construct: also called mmPCSK9-mmh; mmPCSK9
In words: SPR, mAb captured on anti-hFc, 37C.

In assay [4] the target is T4, mouse PCSK9, myc-myc-his tagged (mouse, UniProt Q80W65 35-694).
T4 construct: also called mPCSK9-mmh; mPCSK9
The experiment in a line: SPR, mAb captured on anti-hFc, 37C.

Assay [5] has as its target T5, Human PCSK9-myc-myc-his (human, UniProt Q8NBP7 31-692).
T5 construct: also called hPCSK9-mmh; hPCSK9
The experiment in a line: SPR, mAb captured on anti-hFc, 37C.

Assay [6] has as its target T6, cynomolgus monkey (Macaca fascicularis) PCSK9, myc-myc-his tagged (cynomolgus monkey (Macaca fascicularis), UniProt A8T662 31-692 (Macaca nemestrina entry), limits assumed).
T6 construct: also called mfPCSK9-mmh; mfPCSK9
In words: SPR, mAb captured on anti-hFc, 37C.

In assay [7] the target is T7, rat (Rattus norvegicus) PCSK9, myc-myc-his tagged (rat (Rattus norvegicus), UniProt P59996 31-691).
T7 construct: also called rPCSK9-mmh; rPCSK9
The experiment in a line: SPR, mAb captured on anti-hFc, 37C.

Assay [8] addresses T4, mouse PCSK9, myc-myc-his tagged. The experiment in a line: SPR, mAb captured on anti-hFc, 25C.
Target sequence in this assay (Q80W65 35-694 limits assumed): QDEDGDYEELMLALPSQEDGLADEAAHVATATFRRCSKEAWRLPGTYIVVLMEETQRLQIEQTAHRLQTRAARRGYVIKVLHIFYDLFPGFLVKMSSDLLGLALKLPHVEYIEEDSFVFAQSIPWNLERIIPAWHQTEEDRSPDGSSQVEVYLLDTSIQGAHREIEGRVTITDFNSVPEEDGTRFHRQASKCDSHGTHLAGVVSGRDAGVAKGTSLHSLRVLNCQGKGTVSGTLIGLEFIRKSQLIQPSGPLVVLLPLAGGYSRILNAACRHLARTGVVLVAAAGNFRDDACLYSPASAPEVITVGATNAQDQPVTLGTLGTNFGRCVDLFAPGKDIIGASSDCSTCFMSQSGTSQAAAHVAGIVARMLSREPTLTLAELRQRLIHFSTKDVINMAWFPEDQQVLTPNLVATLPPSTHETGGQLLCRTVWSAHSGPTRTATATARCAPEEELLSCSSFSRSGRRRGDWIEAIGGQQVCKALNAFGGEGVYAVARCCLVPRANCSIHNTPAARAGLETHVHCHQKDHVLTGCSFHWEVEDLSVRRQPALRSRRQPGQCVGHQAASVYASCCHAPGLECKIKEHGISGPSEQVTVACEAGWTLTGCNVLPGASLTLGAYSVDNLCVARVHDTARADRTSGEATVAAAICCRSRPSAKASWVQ
Assay [9] addresses T5, Human PCSK9-myc-myc-his. The experiment in a line: SPR, mAb captured on anti-hFc, 25C.
The target of assay [10] is T6, cynomolgus monkey (Macaca fascicularis) …. The experiment in a line: SPR, mAb captured on anti-hFc, 25C.
Assay [11] has as its target T7, rat (Rattus norvegicus) PCSK9, …. In words: SPR, mAb captured on anti-hFc, 25C.

T7 sequence (P59996 31-691 limits assumed): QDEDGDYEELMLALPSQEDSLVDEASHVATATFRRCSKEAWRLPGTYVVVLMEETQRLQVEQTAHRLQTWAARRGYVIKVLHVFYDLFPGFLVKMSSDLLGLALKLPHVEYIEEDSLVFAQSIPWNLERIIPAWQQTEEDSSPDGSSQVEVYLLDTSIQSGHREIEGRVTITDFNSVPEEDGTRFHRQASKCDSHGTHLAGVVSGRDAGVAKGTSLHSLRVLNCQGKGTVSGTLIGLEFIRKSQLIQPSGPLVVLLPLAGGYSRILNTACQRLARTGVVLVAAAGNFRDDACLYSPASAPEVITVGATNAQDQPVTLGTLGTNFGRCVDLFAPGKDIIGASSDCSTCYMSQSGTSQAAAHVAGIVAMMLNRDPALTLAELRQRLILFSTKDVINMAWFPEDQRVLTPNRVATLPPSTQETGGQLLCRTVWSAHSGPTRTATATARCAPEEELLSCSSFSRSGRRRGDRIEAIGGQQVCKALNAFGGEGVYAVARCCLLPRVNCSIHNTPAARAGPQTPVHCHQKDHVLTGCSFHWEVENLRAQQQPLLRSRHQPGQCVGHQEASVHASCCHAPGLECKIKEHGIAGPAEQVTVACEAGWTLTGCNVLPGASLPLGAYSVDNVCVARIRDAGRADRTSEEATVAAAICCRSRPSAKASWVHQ
T6 sequence (A8T662 31-692 limits assumed): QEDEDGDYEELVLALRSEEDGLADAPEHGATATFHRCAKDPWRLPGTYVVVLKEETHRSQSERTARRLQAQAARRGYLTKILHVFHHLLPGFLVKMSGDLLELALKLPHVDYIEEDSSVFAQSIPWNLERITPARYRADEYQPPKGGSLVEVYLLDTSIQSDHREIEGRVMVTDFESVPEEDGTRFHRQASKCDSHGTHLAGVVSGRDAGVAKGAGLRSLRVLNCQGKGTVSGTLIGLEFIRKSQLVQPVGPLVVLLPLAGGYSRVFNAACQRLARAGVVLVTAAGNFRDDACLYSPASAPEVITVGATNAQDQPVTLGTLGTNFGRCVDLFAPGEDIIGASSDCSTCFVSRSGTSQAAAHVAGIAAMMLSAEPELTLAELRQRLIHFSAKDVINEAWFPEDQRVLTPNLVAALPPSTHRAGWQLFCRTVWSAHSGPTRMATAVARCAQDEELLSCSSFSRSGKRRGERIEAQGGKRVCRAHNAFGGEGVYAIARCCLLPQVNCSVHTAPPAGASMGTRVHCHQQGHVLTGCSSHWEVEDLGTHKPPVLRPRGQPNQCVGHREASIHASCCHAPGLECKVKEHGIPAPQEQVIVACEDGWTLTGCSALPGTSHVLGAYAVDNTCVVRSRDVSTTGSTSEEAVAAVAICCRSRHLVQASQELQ
T3 sequence (A8T666 31-692 limits assumed): as the sequence (A8T662 31-692 limits assumed) above, with A607P, E639K counted along it

B1: H1H316P (antibody, V domains shown)
VH: EVQLVESGGGLVQPGGSLRLSCAASGFTFNNYAMNWVRQAPGKGLDWVSTISGSGGTTNYADSVKGRFIISRDSSKHTLYLQMNSLRAEDTAVYYCAKDSNWGNFDLWGRGTLVTVSS
VL: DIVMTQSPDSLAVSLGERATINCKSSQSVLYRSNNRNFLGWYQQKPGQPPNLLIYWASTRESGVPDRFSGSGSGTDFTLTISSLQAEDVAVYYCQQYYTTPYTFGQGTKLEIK
notes: Fully human mAb made in CHO cells; also called mAb316P
As to B1, the Kd is 19 nM in [1]; 4.2 nM in assay [2]; 1.8 nM in assay [3]; 4.7 nM in [4]; 1.8 nM in assay [5]; 1.8 nM in [6]. The Kd in [7] is 37.5 nM; in assay [8], 2.3 nM; in assay [9] it was 0.58 nM; in assay [10] it was 0.52 nM; in assay [11] it was 14.5 nM. Moreover, the T1/2 in assay [1] was determined as 1 min; in assay [2], 4 min; in assay [3], 21 min; in [4], 3 min; in [5] it was 9 min; in assay [6] it was 11 min. Further, the T1/2 was determined as 1 min in [7]; 11 min in assay [8]; 36 min in assay [9]; 60 min in [10]; 2 min in assay [11].
